In US20180273622A1 (APTEVO RESEARCH AND DEVELOPMENT, published 2018):
Residue numbers refer to the chain shown, from its start. Values belong to the binder of their own block, whether it stands above or below them.

Key:
[1] = target: T1, human CD3 (human, UniProt P07766 23-207; P09693 23-182; P04234 22-171; P20963 22-164); assay: flow cytometry on Jurkat T-cells, anti-human IgG detection
T1 construct: whole, on cells; It was presented on the CD3+ Jurkat T-cell line, on a Jurkat subclone with higher CD3 expression, or on human T-cells; also called CD3 on Jurkat T-cells; CD3 on human T-cells
Protocol: Binding studies were performed by standard flow cytometry-based staining procedures using the CD3⁺ Jurkat T-cell line. All labeling and washes were performed in U-bottom 96-well plates in saline buffer with 3% BSA and 2 mM EDTA. Jurkat cells were plated at 200,000 cells per well and incubated with a range of 0.1 nM to 200 nM concentrations of test molecules in 50 μL volume/well, for 30 minutes on ice. Cells were washed three times then incubated for another 30 minutes on ice with fluorescently-labeled minimum cross reactive secondary polyclonal antibody, F(ab′)² goat anti-human IgG, (Jackson ImmunoResearch Laboratories) and the viability dye 7-AAD. The cells were then washed twice, and the samples acquired in a BD LSRII flow cytometer. The sample files were analyzed using FlowJo software; the mean fluorescence intensity (MFI) of the live population of Jurkat cells in each well was calculated after gating on live cells (forward vs. side scatter, then 7-AAD cells).

[2] = target: T1, human CD3; assay: flow cytometry on a Jurkat subclone with higher CD3 expression (FIG. 2)

T1 sequence (P07766 23-207, chain 1 of 4): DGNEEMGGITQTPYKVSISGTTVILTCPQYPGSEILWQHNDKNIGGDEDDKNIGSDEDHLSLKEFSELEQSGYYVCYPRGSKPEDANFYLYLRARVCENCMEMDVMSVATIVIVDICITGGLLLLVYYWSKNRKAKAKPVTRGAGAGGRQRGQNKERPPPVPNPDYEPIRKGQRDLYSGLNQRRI
T1 sequence (P09693 23-182, chain 2 of 4): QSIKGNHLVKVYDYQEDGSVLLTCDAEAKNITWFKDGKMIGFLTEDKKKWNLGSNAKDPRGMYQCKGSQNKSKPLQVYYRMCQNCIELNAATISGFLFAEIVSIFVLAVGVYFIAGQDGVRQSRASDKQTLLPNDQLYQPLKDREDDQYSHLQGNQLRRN
T1 sequence (P04234 22-171, chain 3 of 4): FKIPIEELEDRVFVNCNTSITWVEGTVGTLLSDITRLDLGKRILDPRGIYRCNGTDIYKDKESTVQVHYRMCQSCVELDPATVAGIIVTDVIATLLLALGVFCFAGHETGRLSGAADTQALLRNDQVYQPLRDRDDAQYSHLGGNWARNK
T1 sequence (P20963 22-164, chain 4 of 4): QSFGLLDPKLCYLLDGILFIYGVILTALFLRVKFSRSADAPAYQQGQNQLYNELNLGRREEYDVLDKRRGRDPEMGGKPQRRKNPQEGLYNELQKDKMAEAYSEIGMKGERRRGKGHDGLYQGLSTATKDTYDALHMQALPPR

B1: Fc H10L5 (TSC324) (Fc fusion)
chain: EPKSSDKTHTCPPCPAPEAAGAPSVFLFPPKPKDTLMISRTPEVTCVVVDVSHEDPEVKFNWYVDGVEVHNAKTKPREEQYNSTYRVVSVLTVLHQDWLNGKAYACAVSNKALPAPIEKTISKAKGQPREPQVYTLPPSRDELTKNQVSLTCLVKGFYPSDIAVEWESNGQPENNYKTTPPVLDSDGSFFLYSKLTVDKSRWQQGNVFSCSVMHEALHNHYTQKSLSLSPGQRHNNSSLNTGTQMAGHSPNSQVQLVQSGAEVKKPGSSVKVSCKASGGTFSRSTMHWVRQAPGQGLEWMGYINPSSAYTNYNQKFKDRVTITADKSTSTAYMELSSLRSEDTAVYYCARPQVHYDYNGFPYWGQGTLVTVSSGGGGSGGGGSGGGGSGGGGSDIQMTQSPSSLSASVGDRVTITCSASSSVSYMNWYQQKPGKAPKLLIYDSSKLASGVPSRFSGSGSGTDFTLTISSLQPEDFATYYCQQWSRNPPTFGGGTKVEIKRSSS
notes: Fc anti-CD3 scFv format with H75 linker; The entry is the mature protein
- EC50 [1]: 3.6 nM
- fold increase in the EC50 of binding compared to TSC312 [1]: 2 fold

B2: Fc H10L6 (TSC340) (Fc fusion)
chain: B1 chain with L438R, L439W
notes: Fc anti-CD3 scFv format; The entry is the mature protein
- fold higher EC50 than TSC312 [2]: 2 fold

Other lines, results leading:

- fold higher EC50 than TSC312 [2]: 2 fold
B3: Fc H10L8 (TSC342) (Fc fusion)
chain: B1 chain with S403T, L438R, L439W, D462E, E473D
notes: as for B2

- fold higher EC50 than TSC312 [2]: 2 fold
B4: Fc H10L7 (TSC341) (Fc fusion)
chain: EPKSSDKTHTCPPCPAPEAAGAPSVFLFPPKPKDTLMISRTPEVTCVVVDVSHEDPEVKFNWYVDGVEVHNAKTKPREEQYNSTYRVVSVLTVLHQDWLNGKAYACAVSNKALPAPIEKTISKAKGQPREPQVYTLPPSRDELTKNQVSLTCLVKGFYPSDIAVEWESNGQPENNYKTTPPVLDSDGSFFLYSKLTVDKSRWQQGNVFSCSVMHEALHNHYTQKSLSLSPGQRHNNSSLNTGTQMAGHSPNSQVQLVQSGAEVKKPGSSVKVSCKASGGTFSRSTMHWVRQAPGQGLEWMGYINPSSAYTNYNQKFKDRVTITADKSTSTAYMELSSLRSEDTAVYYCARPQVHYDYNGFPYWGQGTLVTVSSGGGGSGGGGSGGGGSGGGGSEIVLTQSPATLSLSPGERATLSCSASSSVSYMNWYQQKPGLAPRRWIYDSSKLASGIPDRFSGSGSGTDFTLTISRLEPEDFAVYYCQQWSRNPPTFGGGTKVEIKRSSS
notes: as for B2
